According to patent US20050079543A1 (ROCKEFELLER UNIVERSITY, published 2005):

What was measured:
[1] = biological target: the molecule itself; experiment: gel mobility shift with extracts of C84 cells
Experimental: (§1) Mobility shift analysis was performed with extracts from these stable cell lines (FIG. 18B). Extracts of IFN-γ-treated C84 cells produced a faster migrating gel shift band than extracts of treated C91L cells. Most importantly, extracts from IFN-γ-treated Cmx cells expressing both Stat84 and Stat91L proteins formed an additional intermediate gel shift band. Anti-91, an antiserum against the C-terminal 38 amino acids of Stat91 (12) that are absent in Stat84, specifically removed the top two shift bands seen with the Cmx extracts. Anti-91, an antiserum against amino acids 609 to 716 (15) that recognizes both Stat91L and Stat84, proteins inhibited the binding of all three shift bands. Thus, the middle band formed by extracts of the Cmx cells is clearly identified as a heterodimer of Stat84 and Stat91L. We concluded that both Stat91 and Stat84 bind DNA as homodimers and, if present in the same cell, will form heterodimers.

[2] = biological target: T1, Stat91L, activated (from IFN-γ-treated C91L or Cmx cells) (human, UniProt P42224 2-750, activated by IFN-γ treatment of the cells; phosphotyrosine at 701 as stated for Stat91); experiment: gel mobility shift with extracts of cells that express both proteins, with antisera
T1 construct: Expressed in U3A cells that lack Stat91/84; also called long form of Stat91; MNC-91L product; not shown: C-terminal tag of 34 amino acids encoded by the pMNC vector
T1 sequence: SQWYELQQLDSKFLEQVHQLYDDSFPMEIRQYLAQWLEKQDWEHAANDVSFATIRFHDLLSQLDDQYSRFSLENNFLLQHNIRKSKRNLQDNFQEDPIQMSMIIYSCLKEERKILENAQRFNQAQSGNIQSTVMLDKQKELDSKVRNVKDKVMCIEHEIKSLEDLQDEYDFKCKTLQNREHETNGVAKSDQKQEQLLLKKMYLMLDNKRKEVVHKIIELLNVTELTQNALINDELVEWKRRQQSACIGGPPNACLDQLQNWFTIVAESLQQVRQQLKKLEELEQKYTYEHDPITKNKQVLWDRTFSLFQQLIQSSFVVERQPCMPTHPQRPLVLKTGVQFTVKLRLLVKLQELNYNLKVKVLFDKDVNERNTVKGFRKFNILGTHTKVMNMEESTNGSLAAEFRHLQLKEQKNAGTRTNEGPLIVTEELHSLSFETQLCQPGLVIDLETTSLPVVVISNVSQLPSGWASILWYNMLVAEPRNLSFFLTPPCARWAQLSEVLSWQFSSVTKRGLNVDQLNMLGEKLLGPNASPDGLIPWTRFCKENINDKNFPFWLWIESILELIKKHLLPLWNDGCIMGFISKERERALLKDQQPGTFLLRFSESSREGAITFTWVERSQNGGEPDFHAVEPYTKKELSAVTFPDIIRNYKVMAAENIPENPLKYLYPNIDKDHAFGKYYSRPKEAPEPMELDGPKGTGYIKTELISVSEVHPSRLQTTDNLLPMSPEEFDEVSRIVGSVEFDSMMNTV
Experimental: as §1

binding result [2]: binds
B1: Stat84, activated (from IFN-γ-treated C84 or Cmx cells) (other)
chain: SQWYELQQLDSKFLEQVHQLYDDSFPMEIRQYLAQWLEKQDWEHAANDVSFATIRFHDLLSQLDDQYSRFSLENNFLLQHNIRKSKRNLQDNFQEDPIQMSMIIYSCLKEERKILENAQRFNQAQSGNIQSTVMLDKQKELDSKVRNVKDKVMCIEHEIKSLEDLQDEYDFKCKTLQNREHETNGVAKSDQKQEQLLLKKMYLMLDNKRKEVVHKIIELLNVTELTQNALINDELVEWKRRQQSACIGGPPNACLDQLQNWFTIVAESLQQVRQQLKKLEELEQKYTYEHDPITKNKQVLWDRTFSLFQQLIQSSFVVERQPCMPTHPQRPLVLKTGVQFTVKLRLLVKLQELNYNLKVKVLFDKDVNERNTVKGFRKFNILGTHTKVMNMEESTNGSLAAEFRHLQLKEQKNAGTRTNEGPLIVTEELHSLSFETQLCQPGLVIDLETTSLPVVVISNVSQLPSGWASILWYNMLVAEPRNLSFFLTPPCARWAQLSEVLSWQFSSVTKRGLNVDQLNMLGEKLLGPNASPDGLIPWTRFCKENINDKNFPFWLWIESILELIKKHLLPLWNDGCIMGFISKERERALLKDQQPGTFLLRFSESSREGAITFTWVERSQNGGEPDFHAVEPYTKKELSAVTFPDIIRNYKVMAAENIPENPLKYLYPNIDKDHAFGKYYSRPKEAPEPMELDGPKGTGYIKTELISVSEV
modifications: activated by IFN-γ treatment of the cells (tyrosine phosphorylation; Tyr-701 is stated for Stat91)
notes: Expressed in U3A cells that lack Stat91/84; also called MNC-84 product
binding result [1]: binds
